According to patent US20250043302A1, “MUTATED HYDROXYPHENYLPYRUVATE DIOXYGENASE POLYPEPTIDE, AND CODING GENE AND USE THEREOF” (BEIJING DABEINONG BIOTECHNOLOGY CO., LTD., priority 2021, published 2025):

Test system: Arabidopsis thaliana T1 plants
Experiment: Isoxaflutole tolerance of transgenic Arabidopsis thaliana T1 plants (spray, bleached leaf area grade, damage score);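 as to Scores: Weighted damage index from 0 to 100 where higher means more damage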
Format: in vivo
Details: for Grade 0 (classification and statistics of the grade of pesticide damage; number of plants) / Grade 1 (classification and statistics of the grade of pesticide damage; number of plants) / Grade 2 (classification and statistics of the grade of pesticide damage; number of plants) / Grade 3 (classification and statistics of the grade of pesticide damage; number of plants): 16 plants; for Classification and statistics of the grade of pesticide damage: Grade 0 / Classification and statistics of the grade of pesticide damage: Grade 1 / Classification and statistics of the grade of pesticide damage: Grade 2 / Classification and statistics of the grade of pesticide damage: Grade 3: number of plants
Procedure, shortened: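 Read-out: per-plant damage grade 0–3 from proportion of bleached leaf area at 7 DAT (1 <50%, 2 >50%, 3 100%). Plants were T1 transformants, glufosinate-selected, plus wild-type CK, sprayed 18 days post-sowing. Rates: topramezone 25–200, isoxaflutole 35–280, mesotrione 52.5–420 g ai/ha.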

[1] = isoxaflutole 140 g ai/ha (2x field concentration), Arabidopsis thaliana T1 plants
[2] = isoxaflutole 140 g ai/ha (2×), 7 DAT, Table 2
[3] = isoxaflutole 140 g ai/ha, number of plants in grade
[4] = isoxaflutole 280 g ai/ha (4x field concentration), Arabidopsis thaliana T1 plants
[5] = isoxaflutole 280 g ai/ha (4×), 7 DAT, Table 2
[6] = isoxaflutole 280 g ai/ha, number of plants in grade

B1: AsHPPD-02: nucleotide sequence encoding Avena sativa wild-type HPPD; vector DBN11727 (nucleic acid)
DNA: ATGCCACCTACTCCAGCTACAGCTACTGGTGCTGCTGCTGCTGCCGTTACTCCTGAGCACGCTGCCAGGTCATTCCCCAGGGTGGTTCGCGTGAACCCCAGATCTGATAGGTTCCCAGTTCTGAGCTTCCACCATGTTGAGCTGTGGTGCGCTGATGCTGCTTCTGCTGCTGGCAGGTTCTCTTTCGCTCTTGGTGCTCCACTCGCTGCTAGATCTGATCTGTCTACAGGAAATAGCGCTCATGCCTCACTCCTGCTTCGCTCAGGTGCTTTGGCCTTCCTCTTCACCGCTCCATATGCTCCCCCACCTCAGGAGGCTGCTACTGCTGCTGCTACAGCCTCCATTCCAAGCTTCTCAGCTGATGCCGCTAGAACCTTCGCTGCTGCTCATGGACTTGCCGTGAGGTCTGTTGGTGTTCGCGTGGCTGATGCTGCTGAGGCTTTCAGAGTTTCCGTTGCCGGCGGAGCTAGGCCAGCTTTCGCTCCTGCTGATTTGGGACATGGTTTCGGCCTGGCTGAGGTTGAGCTTTACGGTGACGTGGTTCTCCGCTTCGTGTCTTACCCAGATGAGACTGACCTGCCTTTCCTTCCCGGCTTCGAGAGAGTTTCCTCTCCTGGTGCCGTGGATTACGGCCTGACAAGGTTCGACCACGTGGTTGGAAACGTTCCCGAGATGGCTCCAGTGATCGATTACATGAAGGGCTTCCTTGGATTCCATGAGTTCGCCGAGTTCACTGCTGAGGACGTGGGAACCACTGAGTCCGGTTTGAACTCTGTGGTTCTCGCCAACAATTCTGAGGCTGTTTTGCTCCCTCTGAATGAGCCTGTGCATGGAACCAAGAGGAGAAGCCAGATTCAAACTTACCTGGAGTACCACGGTGGCCCTGGAGTTCAGCATATCGCCCTTGCTTCTAATGATGTGTTGCGCACACTCAGAGAGATGCGCGCCAGAACCCCCATGGGAGGTTTCGAGTTCATGGCCCCACCACAGGCTAAGTACTACGAGGGCGTTAGAAGGATTGCTGGAGACGTGTTGAGCGAGGAGCAGATCAAGGAGTGCCAAGAGCTGGGTGTTCTTGTGGATAGGGATGACCAGGGCGTTCTGCTTCAAATTTTCACTAAGCCAGTGGGCGACCGCCCTACATTCTTCCTTGAGATGATTCAAAGAATCGGCTGCATGGAGAAGGATGAGGTTGGACAGGAGTACCAAAAGGGCGGATGCGGTGGCTTCGGAAAGGGTAACTTCAGCGAGTTGTTCAAGTCAATCGAGGACTACGAGAAGAGCCTCGAGGTGAAGCAGTCAGTGGTTGCCCAAAAGTCCTGA
modifications: AsHPPD-02 Nucleotide Sequence
notes: vector DBN11727
Resistance evaluation (Table 11, isoxaflutole 140 g ai/ha (2×)): Non-resistant
Classification and statistics of the grade of pesticide damage Grade 0 (Table 11, isoxaflutole 140 g ai/ha (2×), number of plants at grade 0): 0
Classification and statistics of the grade of pesticide damage Grade 1 (Table 11, isoxaflutole 140 g ai/ha (2×), number of plants at grade 1): 1
Classification and statistics of the grade of pesticide damage Grade 2 (Table 11, isoxaflutole 140 g ai/ha (2×), number of plants at grade 2): 4
Classification and statistics of the grade of pesticide damage Grade 3 (Table 11, isoxaflutole 140 g ai/ha (2×), number of plants at grade 3): 11
Scores (Table 11, isoxaflutole 140 g ai/ha (2×), pesticide damage score): 88
Resistance evaluation (Table 11, isoxaflutole 280 g ai/ha (4×)): Non-resistant
Classification and statistics of the grade of pesticide damage Grade 0 (Table 11, isoxaflutole 280 g ai/ha (4×), number of plants at grade 0): 0
Classification and statistics of the grade of pesticide damage Grade 1 (Table 11, isoxaflutole 280 g ai/ha (4×), number of plants at grade 1): 0
Classification and statistics of the grade of pesticide damage Grade 2 (Table 11, isoxaflutole 280 g ai/ha (4×), number of plants at grade 2): 0
Classification and statistics of the grade of pesticide damage Grade 3 (Table 11, isoxaflutole 280 g ai/ha (4×), number of plants at grade 3): 16
Scores (Table 11, isoxaflutole 280 g ai/ha (4×), pesticide damage score): 100
tolerance to isoxaflutole (in words) (in vivo): no tolerance
Resistance evaluation (isoxaflutole 140 g ai/ha): Non-resistant
Scores (isoxaflutole 140 g ai/ha): 88
Resistance evaluation [1]: Non-resistant
Scores [1]: 88
Grade 0 (classification and statistics of the grade of pesticide damage; number of plants) [1]: 0
Grade 1 (classification and statistics of the grade of pesticide damage; number of plants) [1]: 1
Grade 2 (classification and statistics of the grade of pesticide damage; number of plants) [1]: 4
Grade 3 (classification and statistics of the grade of pesticide damage; number of plants) [1]: 11
Resistance evaluation [2]: non-resistant (non-resistant plants (scores 68-100))
Classification and statistics of the grade of pesticide damage Grade 0 [3]: 0
Classification and statistics of the grade of pesticide damage Grade 1 [3]: 1
Classification and statistics of the grade of pesticide damage Grade 2 [3]: 4
Classification and statistics of the grade of pesticide damage Grade 3 [3]: 11
Resistance evaluation (isoxaflutole 280 g ai/ha): Non-resistant
Scores (isoxaflutole 280 g ai/ha): 100
Resistance evaluation [4]: Non-resistant
Scores [4]: 100
Grade 0 (classification and statistics of the grade of pesticide damage; number of plants) [4]: 0
Grade 1 (classification and statistics of the grade of pesticide damage; number of plants) [4]: 0
Grade 2 (classification and statistics of the grade of pesticide damage; number of plants) [4]: 0
Grade 3 (classification and statistics of the grade of pesticide damage; number of plants) [4]: 16
Resistance evaluation [5]: non-resistant (non-resistant plants (scores 68-100))
Classification and statistics of the grade of pesticide damage Grade 0 [6]: 0
Classification and statistics of the grade of pesticide damage Grade 1 [6]: 0
Classification and statistics of the grade of pesticide damage Grade 2 [6]: 0
Classification and statistics of the grade of pesticide damage Grade 3 [6]: 16
Classification and statistics of the grade of pesticide damage: Grade 0 [2]: 0
Classification and statistics of the grade of pesticide damage: Grade 1 [2]: 1
Classification and statistics of the grade of pesticide damage: Grade 2 [2]: 4
Classification and statistics of the grade of pesticide damage: Grade 3 [2]: 11
Classification and statistics of the grade of pesticide damage: Grade 0 [5]: 0
Classification and statistics of the grade of pesticide damage: Grade 1 [5]: 0
Classification and statistics of the grade of pesticide damage: Grade 2 [5]: 0
Classification and statistics of the grade of pesticide damage: Grade 3 [5]: 16
Scores (pesticide damage score 0-100, isoxaflutole 140 g ai/ha (2×), 7 DAT, Table 2): 88
Scores (pesticide damage score 0-100, isoxaflutole 280 g ai/ha (4×), 7 DAT, Table 2): 100
